According to publication PMC11446282:

Test system: B55α interactors
Test: MS analysis of B55α WT, V228A, I284A, S287A and D340A immunopurifications
Format: binding, human
Conditions: log2 ratio of interactor abundance, 4 replicates each, normalised to bait B55α; for log2_ratio_D340_WT: B55α D340A vs WT immunopurification; for log2_ratio I284_WT: B55α I284A vs WT immunopurification; for log2_ratio S287_WT: B55α S287A vs WT immunopurification; for log2_ratio V228_WT: B55α V228A vs WT immunopurification
Experimental: Standard cloning techniques were used throughout. Point mutations were introduced by whole plasmid polymerase chain reaction (PCR). All constructs were fully sequenced. Synthetic DNA was purchased from GeneArt, Life Technologies and cloned into pcDNA5/FRT/TO (Invitrogen) expression vector containing YFP, resulting in the indicated YFP fusion proteins. These constructs were transiently transfected into HeLa cells 24 hours before harvesting cells. Cells were lysed in lysis buffer [50 mM tris-HCl (pH 7.5), 50 mM NaCl, 1 mM EDTA, 1 mM […], and 0.1% NP-40]. Complexes were immunoprecipitated at 4°C in lysis buffer with green fluorescent protein (GFP)–Trap (ChromoTek) and washed in lysis buffer. Precipitated protein complexes were washed three times in lysis buffer, eluted in 2× SDS sample buffer, and subjected to Western blotting or MS as indicated.
Pull-downs were analyzed on a Q-Exactive Plus quadrupole or Fusion Orbitrap Lumos mass spectrometer (Thermo Fisher Scientific) equipped with Easy-nLC 1000 or […] (Thermo Fisher Scientific) and nanospray source (Thermo Fisher Scientific).
Static modifications included carbamidomethylcysteine, and variable modifications included oxidized methionine and STY phosphorylation. Searches were filtered using orthogonal measures including mass measurement accuracy (±3 parts per million), Xcorr for charges from +2 to +4, and dCn targeting a <1% false discovery rate at the peptide level. Quantification of LC-MS/MS spectra was performed using MassChroQ ([57]) and the iBAQ method ([58]). All data were analyzed using R 4.3.0. Missing values were imputed from a normal distribution. […] In each dataset, the abundance of the protein of interest was normalized to be equal across all samples. Statistical analyses were done using a two-tailed Student’s t test.

Row | Molecule | log2_ratio_D340_WT | log2_ratio I284_WT | log2_ratio S287_WT | log2_ratio V228_WT
1 | PPME1_HUMAN (protein, UniProt Q9Y570 2-386, looked up) Protein phosphatase …: SALEKSMHLGRLPSRPPLPGSGGSQSGAKMRMGPGRKRDFSPVPWSQYFESMEDVEVENETGKDTFRVYKSGSEGPVLLLLHGGGHSALSWAVFTAAIISRVQCRIVALDLRSHGETKVKNPEDLSAETMAKDVGNVVEAMYGDLPPPIMLIGHSMGGAIAVHTASSNLVPSLLGLCMIDVVEGTAMDALNSMQNFLRGRPKTFKSLENAIEWSVKSGQIRNLESARVSMVGQVKQCEGITSPEGSKSIVEGIIEEEEEDEEGSESISKRKKEDDMETKKDHPYTWRIELAKTEKYWDGWFRGLSNLFLSCPIPKLLLLAGVDRLDKDLTIGQMQGKFQMQVLPQCGHAVHEDAPDKVAEAVATFLIRHRFAEPIGGFQCVFPGC | -3.73 | -7.04 | -10.17 | -9.33
2 | ACOT8_HUMAN (protein, UniProt O14734 1-319, looked up) Acyl-coenzyme A thioesterase 8: MSSPQAPEDGQGCGDRGDPPGDLRSVLVTTVLNLEPLDEDLFRGRHYWVPAKRLFGGQIVGQALVAAAKSVSEDVHVHSLHCYFVRAGDPKLPVLYQVERTRTGSSFSVRSVKAVQHGKPIFICQASFQQAQPSPMQHQFSMPTVPPPEELLDCETLIDQYLRDPNLQKRYPLALNRIAAQEVPIEIKPVNPSPLSQLQRMEPKQMFWVRARGYIGEGDMKMHCCVAAYISDYAFLGTALLPHQWQHKVHFMVSLDHSMWFHAPFRADHWMLYECESPWAGGSRGLVHGRLWRQDGVLAVTCAQEGVIRVKPQVSESKL | -0.23 | – | 0.94 | –
3 | RBM7_HUMAN (protein, UniProt Q9Y580 2-266, looked up) RNA-binding protein 7: GAAAAEADRTLFVGNLETKVTEELLFELFHQAGPVIKVKIPKDKDGKPKQFAFVNFKHEVSVPYAMNLLNGIKLYGRPIKIQFRSGSSHAPQDVSLSYPQHHVGNSSPTSTSPSRYERTMDNMTSSAQIIQRSFSSPENFQRQAVMNSALRQMSYGGKFGSSPLDQSGFSPSVQSHSHSFNQSSSSQWRQGTPSSQRKVRMNSYPYLADRHYSREQRYTDHGSDHHYRGKRDDFFYEDRNHDDWSHDYDNRRDSSRDGKWRSSRH | -4.64 | -3.46 | 0.85 | -3.26
4 | AMOL2_HUMAN (protein, UniProt Q9Y2J4 1-779, looked up) Angiomotin-like protein 2: MRTLEDSSGTVLHRLIQEQLRYGNLTETRTLLAIQQQALRGGAGTGGTGSPQASLEILAPEDSQVLQQATRQEPQGQEHQGGENHLAENTLYRLCPQPSKGEELPTYEEAKAHSQYYAAQQAGTRPHAGDRDPRGAPGGSRRQDEALRELRHGHVRSLSERLLQLSLERNGARAPSHMSSSHSFPQLARNQQGPPLRGPPAEGPESRGPPPQYPHVVLAHETTTAVTDPRYRARGSPHFQHAEVRILQAQVPPVFLQQQQQYQYLQQSQEHPPPPHPAALGHGPLSSLSPPAVEGPVSAQASSATSGSAHLAQMEAVLRENARLQRDNERLQRELESSAEKAGRIEKLESEIQRLSEAHESLTRASSKREALEKTMRNKMDSEMRRLQDFNRDLRERLESANRRLASKTQEAQAGSQDMVAKLLAQSYEQQQEQEKLEREMALLRGAIEDQRRRAELLEQALGNAQGRAARAEEELRKKQAYVEKVERLQQALGQLQAACEKREQLELRLRTRLEQELKALRAQQRQAGAPGGSSGSGGSPELSALRLSEQLREKEEQILALEADMTKWEQKYLEERAMRQFAMDAAATAAAQRDTTLIRHSPQPSPSSSFNEGLLTGGHRHQEMESRLKVLHAQILEKDAVIKVLQQRSRRDPGKAIQGSLRPAKSVPSVFAAAAAGTQGWQGLSSSERQTADAPARLTTDRAPTEEPVVTAPPAAHAKHGSRDGSTQTEGPPDSTSTCLPPEPDSLLGCSSSQRAASLDSVATSRVQDLSDMVEILI | 2.17 | 3.49 | 2.56 | –
5 | TBCD4_HUMAN (protein, UniProt O60343 1-1298, looked up) TBC1 domain family member 4: MEPPSCIQDEPFPHPLEPEPGVSAQPGPGKPSDKRFRLWYVGGSCLDHRTTLPMLPWLMAEIRRRSQKPEAGGCGAPAAREVILVLSAPFLRCVPAPGAGASGGTSPSATQPNPAVFIFEHKAQHISRFIHNSHDLTYFAYLIKAQPDDPESQMACHVFRATDPSQVPDVISSIRQLSKAAMKEDAKPSKDNEDAFYNSQKFEVLYCGKVTVTHKKAPSSLIDDCMEKFSLHEQQRLKIQGEQRGPDPGEDLADLEVVVPGSPGDCLPEEADGTDTHLGLPAGASQPALTSSRVCFPERILEDSGFDEQQEFRSRCSSVTGVQRRVHEGSQKSQPRRRHASAPSHVQPSDSEKNRTMLFQVGRFEINLISPDTKSVVLEKNFKDISSCSQGIKHVDHFGFICRESPEPGLSQYICYVFQCASESLVDEVMLTLKQAFSTAAALQSAKTQIKLCEACPMHSLHKLCERIEGLYPPRAKLVIQRHLSSLTDNEQADIFERVQKMKPVSDQEENELVILHLRQLCEAKQKTHVHIGEGPSTISNSTIPENATSSGRFKLDILKNKAKRSLTSSLENIFSRGANRMRGRLGSVDSFERSNSLASEKDYSPGDSPPGTPPASPPSSAWQTFPEEDSDSPQFRRRAHTFSHPPSSTKRKLNLQDGRAQGVRSPLLRQSSSEQCSNLSSVRRMYKESNSSSSLPSLHTSFSAPSFTAPSFLKSFYQNSGRLSPQYENEIRQDTASESSDGEGRKRTSSTCSNESLSVGGTSVTPRRISWRQRIFLRVASPMNKSPSAMQQQDGLDRNELLPLSPLSPTMEEEPLVVFLSGEDDPEKIEERKKSKELRSLWRKAIHQQILLLRMEKENQKLEASRDELQSRKVKLDYEEVGACQKEVLITWDKKLLNCRAKIRCDMEDIHTLLKEGVPKSRRGEIWQFLALQYRLRHRLPNKQQPPDISYKELLKQLTAQQHAILVDLGRTFPTHPYFSVQLGPGQLSLFNLLKAYSLLDKEVGYCQGISFVAGVLLLHMSEEQAFEMLKFLMYDLGFRKQYRPDMMSLQIQMYQLSRLLHDYHRDLYNHLEENEISPSLYAAPWFLTLFASQFSLGFVARVFDIIFLQGTEVIFKVALSLLSSQETLIMECESFENIVEFLKNTLPDMNTSEMEKIITQVFEMDISKQLHAYEVEYHVLQDELQESSYSCEDSETLEKLERANSQLKRQNMDLLEKLQVAHTKIQALESNLENLLTRETKMKSLIRTLEQEKMAYQKTVEQLRKLLPADALVNCDLLLRDLNCNPNNKAKIGNKP | -3.17 | -2.61 | -1.57 | -1.50
